The values below come from the supplement of paper PMC5998384.

Data set [1] has as its system HeLa Kyoto. Description: melting temperature (median over replicates), in situ; higher = more thermally stable.
The subject of data set [2] is HeLa Kyoto. The data set can be described thus: solubility change mitosis vs G1/S (difference of NP-40 vs SDS log2 ratios) (log2 ratio difference); higher = more soluble in mitosis.
Data set [3] deals with HeLa Kyoto. Description: thermal stability score vs G1/S (z-score of summed log2 fold changes over temperatures); higher = more thermally stable than in G1/S.
Data set [4] relates to HeLa Kyoto. The data set can be described thus: solubility in G1/S (NP-40 vs SDS abundance) (log2 ratio); higher = more soluble. The settings on record: cell cycle stage: G1/S.
Where [5] appears, read: cell cycle stage: early G1 (4.5 h after nocodazole release).
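Wherever melting temperature (median over replicates), in situ is given: HeLa Kyoto cells synchronized by double thymidine or nocodazole block, proteins quantified by TMT10plex mass spectrometry, three independent biological replicates.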
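Wherever solubility change mitosis vs G1/S (difference of NP-40 vs SDS log2 ratios) is given: synchronized HeLa Kyoto cells (double thymidine block for G1/S, nocodazole release for mitosis), protein amounts in NP-40 versus SDS lysates quantified by mass spectrometry, three biological replicates.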
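Wherever solubility in G1/S (NP-40 vs SDS abundance) is given: HeLa Kyoto cells arrested at G1/S by double thymidine block, proteins quantified by TMT10plex mass spectrometry in mild NP-40 versus SDS extracts, three biological replicates.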
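Wherever thermal stability score vs G1/S (z-score of summed log2 fold changes over temperatures) is given: synchronized HeLa Kyoto cells, proteins quantified by TMT10plex mass spectrometry, three biological replicates, mitosis taken 0.5 h after nocodazole release, G1/S directly after double thymidine block.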

As to “MSPPSPGRRREQRRPRAAATMATPLPGRAGGPATPLSPTRLSRLQEKEELRELNDRLAHYIDRVRALELENDRLLLKISEKEEVTTREVSGIKALYESELADARRVLDETARERARLQIEIGKLRAELDEVNKSAKKREGELTVAQGRVKDLESLFHRSEVELAAALSDKRGLESDVAELRAQLAKAEDGHAVAKKQLEKETLMRVDLENRCQSLQEELDFRKSVFEEEVRETRRRHERRLVEVDSSRQQEYDFKMAQALEELRSQHDEQVRLYKLELEQTYQAKLDSAKLSSDQNDKAASAAREELKEARMRLESLSYQLSGLQKQASAAEDRIRELEEAMAGERDKFRKMLDAKEQEMTEMRDVMQQQLAEYQELLDVKLALDMEINAYRKLLEGEEERLKLSPSPSSRVTVSRATSSSSGSLSATGRLGRSKRKRLEVEEPLGSGPSVLGTGTGGSGGFHLAQQASASGSVSIEEIDLEGKFVQLKNNSDKDQSLGNWRIKRQVLEGEEIAYKFTPKYILRAGQMVTVWAAGAGVAHSPPSTLVWKGQSSWGTGESFRTVLVNADGEEVAMRTVKKSSVMRENENGEEEEEEAEFGEEDLFHQQGDPRTTSRGCYVM [LMNB2]”, the melting temperature in data set [1] (cell cycle stage: G1/S) was determined as 51.4 °C; in data set [1] (cell cycle stage: mitosis), 50.3 °C. Also, the “solubility change mitosis (log2)” value in data set [2] was 1.67. For the same sequence, the thermal stability score in data set [3] (setting [5]) is -7.21; in data set [3] (cell cycle stage: mitosis), -6.08. Moreover, in data set [4], the “solubility in G1/S (log2)” value is -1.66.

For “MSPTPPLFSLPEARTRFTKSTREALNNKNIKPLLSTFSQVPGSENEKKCTLDQAFRGILEEEIINHSSCENVLAIISLAIGGVTEGICTASTPFVLLGDVLDCLPLDQCDTIFTFVEKNVATWKSNTFYSAGKNYLLRMCNDLLRRLSKSQNTVFCGRIQLFLARLFPLSEKSGLNLQSQFNLENVTVFNTNEQESTLGQKHTEDREEGMDVEEGEMGDEEAPTTCSIPIDYNLYRKFWSLQDYFRNPVQCYEKISWKTFLKYSEEVLAVFKSYKLDDTQASRKKMEELKTGGEHVYFAKFLTSEKLMDLQLSDSNFRRHILLQYLILFQYLKGQVKFKSSNYVLTDEQSLWIEDTTKSVYQLLSENPPDGERFSKMVEHILNTEENWNSWKNEGCPSFVKERTSDTKPTRIIRKRTAPEDFLGKGPTKKILMGNEELTRLWNLCPDNMEACKSETREHMPTLEEFFEEAIEQADPENMVENEYKAVNNSNYGWRALRLLARRSPHFFQPTNQQFKSLPEYLENMVIKLAKELPPPSEEIKTGEDEDEEDNDALLKENESPDVRRDKPVTGEQIEVFANKLGEQWKILAPYLEMKDSEIRQIECDSEDMKMRAKQLLVAWQDQEGVHATPENLINALNKSGLSDLAESLTNDNETNS [THOC1]”, the melting temperature in data set [1] (cell cycle stage: G1/S) amounted to 49.7 °C; in data set [1] (cell cycle stage: mitosis), 49.5 °C. For the same sequence, in data set [2], the “solubility change mitosis (log2)” value worked out at 0.218. In addition, the results for the thermal stability score in data set [3] (setting [5]) and in data set [3] (cell cycle stage: mitosis) were 0.442 and 3.3, respectively. Besides, the “solubility in G1/S (log2)” value in data set [4] is -0.2.

Consider “MSPTQWDFPVELCCRPMAFVTLTGLDVVYNAVHRAVWDAFCANRRADRVPISFKVLPGDHEYPKCRPKRTSYEWYIPKGILKTGWMNKHLNLVPALVVVFYELDWDEPQWKEKQSECATRVEIVRQSLQGRNTKVAVVLIQKKTPLPPGEDVIASERAAALCNACELSGKSLFVLPHTDHLVGYIIRLENAFYEHAQTYYYTEIRRVKSHKEFLNKTTHQLLFVRHQFKIAFFSELKQDTQNALKNYRTAYNLVHELRAHETNILEIKTMAGFINYKICRLCFQHNTPLDAIAQFRKHIDLCKKKIGSAELSFEHDAWMSKQFQAFGDLFDEAIKLGLTAIQTQNPGFYYQQAAYYAQERKQLAKTLCNHEASVMYPNPDPLETQTGVLDFYGQRSWRQGILSFDLSDPEKEKVGILAIQLKERNVVHSEIIITLLSNAVAQFKKYKCPRMKSHLMVQMGEEYYYAKDYTKALKLLDYVMCDYRSEGWWTLLTSVLTTALKCSYLMAQLKDYITYSLELLGRASTLKDDQKSRIEKNLINVLMNESPDPEPDCDILAVKTAQKLWADRISLAGSNIFTIGVQDFVPFVQCKAKFHAPSFHVDVPVQFDIYLKADCPHPIRFSKLCVSFNNQEYNQFCVIEEASKANEVLENLTQGKMCLVPGKTRKLLFKFVAKTEDVGKKIEITSVDLALGNETGRCVVLNWQGGGGDAASSQEALQAARSFKRRPKLPDNEVHWDSIIIQASTMIISRVPNISVHLLHEPPALTNEMYCLVVTVQSHEKTQIRDVKLTAGLKPGQDANLTQKTHVTLHGTELCDESYPALLTDIPVGDLHPGEQLEKMLYVRCGTVGSRMFLVYVSYLINTTVEEKEIVCKCHKDETVTIETVFPFDVAVKFVSTKFEHLERVYADIPFLLMTDLLSASPWALTIVSSELQLAPSMTTVDQLESQVDNVILQTGESASECFCLQCPSLGNIEGGVATGHYIISWKRTSAMENIPIITTVITLPHVIVENIPLHVNADLPSFGRVRESLPVKYHLQNKTDLVQDVEISVEPSDAFMFSGLKQIRLRILPGTEQEMLYNFYPLMAGYQQLPSLNINLLRFPNFTNQLLRRFIPTSIFVKPQGRLMDDTSIAAA [TRAPPC11]”, for which the melting temperature was found to be 50.7 °C in data set [1] (cell cycle stage: G1/S) and 50.3 °C in data set [1] (cell cycle stage: mitosis). The “solubility change mitosis (log2)” value in data set [2] was -0.216. Besides, the thermal stability score in data set [3] (setting [5]) was 0.0283; in data set [3] (cell cycle stage: mitosis), -0.012. Besides, the “solubility in G1/S (log2)” value in data set [4] is -0.13.

Regarding “MSPVLHFYVRPSGHEGAAPGHTRRKLQGKLPELQGVETELCYNVNWTAEALPSAEETKKLMWLFGCPLLLDDVARESWLLPGSNDLLLEVGPRLNFSTPTSTNIVSVCRATGLGPVDRVETTRRYRLSFAHPPSAEVEAIALATLHDRMTEQHFPHPIQSFSPESMPEPLNGPINILGEGRLALEKANQELGLALDSWDLDFYTKRFQELQRNPSTVEAFDLAQSNSEHSRHWFFKGQLHVDGQKLVHSLFESIMSTQESSNPNNVLKFCDNSSAIQGKEVRFLRPEDPTRPSRFQQQQGLRHVVFTAETHNFPTGVCPFSGATTGTGGRIRDVQCTGRGAHVVAGTAGYCFGNLHIPGYNLPWEDPSFQYPGNFARPLEVAIEASNGASDYGNKFGEPVLAGFARSLGLQLPDGQRREWIKPIMFSGGIGSMEADHISKEAPEPGMEVVKVGGPVYRIGVGGGAASSVQVQGDNTSDLDFGAVQRGDPEMEQKMNRVIRACVEAPKGNPICSLHDQGAGGNGNVLKELSDPAGAIIYTSRFQLGDPTLNALEIWGAEYQESNALLLRSPNRDFLTHVSARERCPACFVGTITGDRRIVLVDDRECPVRRNGQGDAPPTPLPTPVDLELEWVLGKMPRKEFFLQRKPPMLQPLALPPGLSVHQALERVLRLPAVASKRYLTNKVDRSVGGLVAQQQCVGPLQTPLADVAVVALSHEELIGAATALGEQPVKSLLDPKVAARLAVAEALTNLVFALVTDLRDVKCSGNWMWAAKLPGEGAALADACEAMVAVMAALGVAVDGGKDSLSMAARVGTETVRAPGSLVISAYAVCPDITATVTPDLKHPEGRGHLLYVALSPGQHRLGGTALAQCFSQLGEHPPDLDLPENLVRAFSITQGLLKDRLLCSGHDVSDGGLVTCLLEMAFAGNCGLQVDVPVPRVDVLSVLFAEEPGLVLEVQEPDLAQVLKRYRDAGLHCLELGHTGEAGPHAMVRVSVNGAVVLEEPVGELRALWEETSFQLDRLQAEPRCVAEEERGLRERMGPSYCLPPTFPKASVPREPGGPSPRVAILREEGSNGDREMADAFHLAGFEVWDVTMQDLCSGAIGLDTFRGVAFVGGFSYADVLGSAKGWAAAVTFHPRAGAELRRFRKRPDTFSLGVCNGCQLLALLGWVGGDPNEDAAEMGPDSQPARPGLLLRHNLSGRYESRWASVRVGPGPALMLRGMEGAVLPVWSAHGEGYVAFSSPELQAQIEARGLAPLHWADDDGNPTEQYPLNPNGSPGGVAGICSCDGRHLAVMPHPERAVRPWQWAWRPPPFDTLTTSPWLQLFINARNWTLEGSC [PFAS]”, the melting temperature was 51.9 °C in data set [1] (cell cycle stage: G1/S) and 51.5 °C in data set [1] (cell cycle stage: mitosis). In data set [2], the “solubility change mitosis (log2)” value is -0.0731. Further, the thermal stability score in data set [3] (setting [5]) was -3.18; in data set [3] (cell cycle stage: mitosis) it was -3.7. Moreover, the “solubility in G1/S (log2)” value in data set [4] was 0.146.
